Test results published in US20070298997A1, “Compounds useful in treating diabetic microvascular complications and age-related macular degeneration” (priority 2003, published 2007).
Read-outs that look alike come from different tables or passages of the source.

Tests used:
[1] = tested on: retinal neovascularization; assay type: in vivo, Brown Norway rats; conditions: for pre-retinal vascular cells: P<0.01
Procedure: Retinal neovascularization was induced in Brown Norway rats by exposure of newborn rats to hyperoxia as described previously (Gao et al., 2001). Kallistatin was injected intravitreally at P12, and the control eyes received the same volume of PBS. Rats were kept under normoxia for another 5 days, and retinal neovascularization was examined by fluorescein angiography (P17). The control eyes (PBS-injected) developed typical retinal neo-vascularization, including neovascular tufts, microaneurysms, enlarged non-perfusion regions and vascular leakage (FIG. 5a).
Induction of retinal neovascularization and intravitreal injection of kallistatin: Retinal neovascularization was induced as described by Smith et al. (Smith et al., 1994) with some modifications. Briefly, newborn pigmented Brown Norway rats at postnatal day 7 (P7) were exposed to hyperoxia (75% O2) for 5 days and then normoxia. Animals were anesthetized, and kallistatin was injected into the vitreous of the right eye through the pars plana using a glass capillary. The left eye received the same volume of PBS as the control. After injection, the animals were kept in normoxia for another 5 days for further analyses.
Retinal angiography with high molecular weight fluorescein and quantification of neovascularization: Retinal angiography was as described by Smith et al. (Smith et al., 1994). Briefly, rats were anesthetized and perfused with fluorescein via intra-ventricle injection of 50 mg/ml of high molecular weight (2×10^6) fluorescein isothiocyanate-dextran (Sigma, St. Louis, Mo.). The animals were immediately sacrificed, and the eyes were enucleated and fixed in 4% paraformaldehyde for 10 min. The retina was dissected free of the lens and vitreous and incubated in 4% paraformaldehyde for 3 h. The retina was cut and flat-mounted on a gelatin-coated slide. The vasculature was then examined under a fluorescent microscope (Axioplan2 Imaging, Zeiss).
Retinal neovascularization was quantified by counting pre-retinal vascular cells as previously described (Zhang et al., 2001). The average number of pre-retinal vascular nuclei was compared to the PBS control group by Student's t test.

pericytes = experiment: Quantification of viable cells by MTT assay, pericytes; assay type: cell-based, bovine; conditions: 5-160 nM, 72 h, P>0.05
Procedure: (§1) FIG. 2 illustrates the specific inhibition of endothelial cell proliferation by recombinant kallistatin. RCEC were treated with recombinant kallistatin at concentrations of 5,10, 20, 40, 80 and 160 nM for 72 h. Viable cells were quantified by MTT assay. […] This effect appeared to be kallistatin concentration-dependent, with an apparent IC50 of 50 nM (FIG. 2) which is similar to that of K5, a known angiogenic inhibitor (Zhang et al., 2001).
(§2) Quantification of viable cells: Cells were plated in 12-well plates in triplicate and cultured in the growth medium until they reached 60-70% of confluency. The culture medium was replaced with a medium containing 1% fetal bovine serum (FBS). Recombinant kallistatin was added to the cover medium to various concentrations and incubated with the cells for 72 h. The viable cells were quantified by the MTT (3-[4,5-dimethylthiazol-2-yl]-2,5-dephenyl tetrazolium bromid, Roche, Mannheim, Germany) assay following a protocol recommended by the manufacturer. The effect of kallistatin on viable cell number was analyzed using Student's t test.

[2] = tested on: Retinal capillary endothelial cells (RCEC); experiment: Quantification of viable cells by MTT assay, RCEC; assay type: cell-based, bovine
Procedure: as §1
FIG. 7 illustrates the effects of B1 and B2 kinin receptor antagonists on RCEC. In order to test whether the anti-angiogenic activity of kallistatin is via reducing kinin production by inhibiting kallikrein activity, RCEC were treated with 5 μM des-Arg^9-[Leu^8]-bradykinin, a specific antagonist of the B1 kinin receptor or Hoe-140, a specific B2 kinin receptor antagonist, in the presence or absence of 40 nM kallistatin for 48 h, and viable cells were quantified by MTT assay.
as §2

TGF-β = experiment: TGF-β-induced fibronectin secretion in HMC (ELISA); assay type: cell-based, human; conditions: 5 ng/ml TGF-β, 3 days
Procedure: FIG. 12 illustrates that kallistatin blocks TGF-β-induced fibronectin over-production in HMC. HMC were treated with 5 ng/ml TGF-β without or with different concentrations of kallistatin for 3 days. Fibronectin secreted into the medium was measured by ELISA (mean±SD, n=3). TGF-β induced significant over-production of fibronectin.
Kallistatin blocks the function of TGF-β, a major pathogenic factor in DN. TGF-β is a major inflammatory and fibrosis mediator. It plays a major role in the development of DN. To explore the role of kallistatin in DN, the effect of kallistatin in blocking TGF-β activity in kidney cells was determined. HMC were treated with 5 ng/ml TGF-β for 3 days without or with different concentrations of kallistatin.

RCEC = experiment: Quantitative analysis of apoptosis by Annexin V/PI flow cytometry; assay type: cell-based, bovine; conditions: 24 h, 40-640 nM
Procedure: To determine whether kallistatin might induce cell death, RCEC were incubated with different concentrations of kallistatin or 10 μM chochicine for 24 h, and the apoptotic cells were quantified using the Annexin V-flow cytometry method. Phosphatidylserine externalization is a characteristic of cells undergoing apoptosis. The Annexin V-FITC kit allows for fluorescent detection of Annexin V bound to apoptotic cells and quantitative determination by flow cytometry. The Annexin V-FITC kit uses Annexin V conjugated with fluorescein isothiocyante (FITC) to label phosphatidylserine sites on the membrane surface. The kit includes propidium iodide (PI) to label the cellular DNA in necrotic cells where the cell membrane has been totally compromised. This combination allows the differentiation among early apoptotic cells (Annexin V positive, PI negative), necrotic cells (Annexin V positive, PI positive), and viable cells (Annexin V negative, PI negative) which can be located in the lower right, upper right, and lower left quadrants of the cytograms, respectively (FIG. 4a). Because only cells that are Annexin V-positive and PI-negative are truly apoptotic cells, the percentage of this cell population was quantified.
Quantitative analysis of apoptosis by flow cytometry: RCEC were plated at a density of 10^5 cells/well in 6-well plates. […] The cells were subsequently counted by flow cytometry.

B1: kallistatin: Recombinant His-tagged rat kallistatin (serpin, SEQ ID NO:1) expressed in E. coli and affinity-purified (protein, listed as Homo sapiens)
chain: DGILGRDTLPHEDQGKGRQLHSLTLASINTDFTLSLYKKLALRNPDKNVVFSPLSISAALAILSLGAKDSTMEEILEVLKFNLTEITEEEIHHQGFGHLLQRLSQPEDQAEINTGSALFIDKEQPILSEFQEKTRALYQAEAFVADFKQCNEAKKFINDYVSNQTQGKIAELFSELDERTSMVLVNYLLFKGKWKVPFNPNDTFESEFYLDEKRSVKVPMMKIKDLTTPYIRDEELSCSVLELKYTGNASALFILPDQGKMQQVESSLQPETLKKWKDSLRPRIISELRMPKFSISTDYNLEEVLPELGIRKIFSQQADLSRITGTKNLHVSQVVHKAVLDVDETGTEGAAATAVTAALKSLPQTIPPLNFNRPFMLVITDNNGQSVFFMGKVTNPM
modifications: His tag
- pre-retinal vascular cells ([1]; OIR rats, 12.5 μg per eye intravitreal): significantly decreased pre-retinal vascular cells
- pre-retinal vascular cells ([1]; OIR rats, 25 μg per eye intravitreal): significantly decreased pre-retinal vascular cells
- retinal vasculature by fluorescein angiography ([1]; OIR rats, intravitreal injection at P12, examined P17): apparent improvement in retinal vasculature
- retinal vasculature by fluorescein angiography, normal rats ([1]; rat, in vivo): did not result in any apparent difference in retinal vasculature
- inhibition of pericytes (viable cells) (pericytes): did not result in any significant inhibition
- viable cells vs control ([2]; 5 nM, 72 h, P<0.05): significantly fewer viable cells than the control cells
- viable cell numbers, % of the control ([2]; 40 nM, 48 h, P<0.01): approximately 50 % of the control
- IC50 ([2]; 72 h, read-out: apparent IC50, viable cells): 50 nM
- TGF-β-induced fibronectin secretion (TGF-β): blocked the TGF-β-induced fibronectin secretion in a concentration-dependent manner
- TGF-β-induced fibronectin secretion (TGF-β; listed as Kallistatin): blocked the TGF-β-induced fibronectin production in a concentration-dependent manner
- apoptosis (Annexin V-positive, PI-negative cells) (RCEC): increases apoptosis in RCEC in a dose-dependent manner
